We go through five molecules from publication PMC7954794, “Protein context shapes the specificity of SH3 domain-mediated interactions in vivo” (Nature Communications, 2021).

In the assay the test system is PPIs identified as affected by the SH3 domain deletions. The assay is described as follows: Liquid DHFR-PCA low-throughput validation of PPIs affected by SH3 deletion (Fig. S1D-E). In kind it is cell-based, Saccharomyces cerevisiae. The conditions noted are these: label = prey, liquid DHFR-PCA, prey _1 = lost, _2 = gained in screen. The method in brief: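 Yeast diploids from DHFR-PCA mating grown 48 h in synthetic complete MSG medium pH 6.0 with NAT and HPH, normalized to 1 OD and diluted to 0.1 OD in liquid PCA selection medium. Growth followed by OD every 15 min for 72 h at 30 °C.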

B1: YNL287W_2 (protein, UniProt P32074 1-935, looked up)
Coatomer subunit gamma: MSAHTYKKFENSTSGDLPDKMTIYQDCMNTFNESPVNSKRCRLLISRLLRLLAQGETFPQNEATALFFSISKLFQHQNDPLRQAVYLAIKELSGISEDVLMATSSIMKDVQNGSDLIKPDAIRSLTYVLDESTAFSAERLLKSAVVSRHPSISSAALCTSYHLLPISEVTIRRFTNETQEAVLDLKQFPNQHGNSEYYPNSTYISQYHALGLLYQLKKTDKMALLKLVRHFSENNSMKNQLAKVELVKIVNDLIYRDPQLFSQFRPLLSDWLSNKFESVQLETAKLITSFATRNSRLVAPELYAAAISALQSLLTVPRVSSRFAALRILNRISMVSPEKIVVCNPELESLINDSNRNISTYAITTLLKTGTSKNISSLISTITNFIHDVSDDFKIIIIDAVRTLSLNFPQEWKSILNFLIDVLKNSEGGFKFKNSIVEALIDIVSFVPQSKELALENLCDFIEDCEFNEILVRILHLLGKEGPSAPNPSLYVRHIYNRVVLENSIIRSAAVVALSKFALTKNDPTLYESIISLLKRIANDKDDEVRDRATIALEFIDSARNKDDVIAQNLIESKYFYDIPSLESKLSSYISSNTDSFATAFDVNQVRKFTEDEMKAINLKRKQEQIFNQKSETTLDTTPEAESVPEKRADANSFAGPNLDDHQEDLLATKYADELLSIEQIKPFGQLVNSSRAISLTEPEAEFVVRGVKHLFKDNVVLQFNITNTLTDIALDNVSVVCTPEISDEAELEELFTLQVDRLLPSEEAACYVAFKKLDEIVMEGFLNNLTFTTKEINPDTNEPFDGDEGFQDEYEIDSIFLNAGDYVKSSFTGNFSATFDELPCEEVAVFNIQEDLSIQEVVDKIILNSSCLPVESTQFAPSDSNSHTLKLFGKSALTGSKVALQIKMIKSSKGLALKVHGKGEDSLLCSDLVNGLMQ
In the case of B1, the “Ratio (Deletedscore / WTscore)” value was 1.101 (bait ABP1) and 1.751 (bait LSB3).

B2: YJL020C_1 (protein, UniProt P47068 1-1157, looked up)
Myosin tail …: MSEPEVPFKVVAQFPYKSDYEDDLNFEKDQEIIVTSVEDAEWYFGEYQDSNGDVIEGIFPKSFVAVQGSEVGKEAESSPNTGSTEQRTIQPEVEQKDLPEPISPETKKETLSGPVPVPAATVPVPAATVPVPAATAVSAQVQHDSSSGNGERKVPMDSPKLKARLSMFNQDITEQVPLPKSTHLDLENIPVKKTIVADAPKYYVPPGIPTNDTSNLERKKSLKENEKKIVPEPINRAQVESGRIETENDQLKKDLPQMSLKERIALLQEQQRLQAAREEELLRKKAKLEQEHERSAVNKNEPYTETEEAEENEKTEPKPEFTPETEHNEEPQMELLAHKEITKTSREADEGTNDIEKEQFLDEYTKENQKVEESQADEARGENVAEESEIGYGHEDREGDNDEEKEEEDSEENRRAALRERMAKLSGASRFGAPVGFNPFGMASGVGNKPSEEPKKKQHKEKEEEEPEQLQELPRAIPVMPFVDPSSNPFFRKSNLSEKNQPTETKTLDPHATTEHEQKQEHGTHAYHNLAAVDNAHPEYSDHDSDEDTDDHEFEDANDGLRKHSMVEQAFQIGNNESENVNSGEKIYPQEPPISHRTAEVSHDIENSSQNTTGNVLPVSSPQTRVARNGSINSLTKSISGENRRKSINEYHDTVSTNSSALTETAQDISMAAPAAPVLSKVSHPEDKVPPHPVPSAPSAPPVPSAPSVPSAPPVPPAPPALSAPSVPPVPPVPPVSSAPPALSAPSIPPVPPTPPAPPAPPAPLALPKHNEVEEHVKSSAPLPPVSEEYHPMPNTAPPLPRAPPVPPATFEFDSEPTATHSHTAPSPPPHQNVTASTPSMMSTQQRVPTSVLSGAEKESRTLPPHVPSLTNRPVDSFHESDTTPKVASIRRSTTHDVGEISNNVKIEFNAQERWWINKSAPPAISNLKLNFLMEIDDHFISKRLHQKWVVRDFYFLFENYSQLRFSLTFNSTSPEKTVTTLQERFPSPVETQSARILDEYAQRFNAKVVEKSHSLINSHIGAKNFVSQIVSEFKDEVIQPIGARTFGATILSYKPEEGIEQLMKSLQKIKPGDILVIRKAKFEAHKKIGKNEIINVGMDSAAPYSSVVTDYDFTKNKFRVIENHEGKIIQNSYKLSHMKSGKLKVFRIVARGYVGW
On to B2, for which the “Ratio (Deletedscore / WTscore)” value is recorded as 0.4075 (bait MYO3) and 0.4895 (bait MYO5).

B3: YJL095W_1 (protein, UniProt Q01389 1-1478, looked up)
Serine/threonine-protein …: MPFLRKIAGTAHTHSRSDSNSSVKFGHQPTSSVASTKSSSKSPRATSRKSIYDDIRSQFPNLTPNSTSSQFYESTPVIEQSFNWTTDDHISAGTLENPTSFTNSSYKNDNGPSSLSDSRKSSGGNSVNSLSFDKLILSWDPTDPDEWTMHRVTSWFKFHDFPESWILFFKKHQLFGHRFIKLLAYDNFAVYEKYLPQTKTASYTRFQQLLKKTMTKNVTNSHIRQKSASKLKSSRSSSESIKSKLKNSKSQEDISNSRSTSESALSPTKSGPSKTDEKNFLHSTSTHQKTKSASSLYRRSFISLRGSSSSNASSAKSPSNIKLSIPARPHSIIESNSTLTKSASPPASPSYPSIFRRHHKSSSSESSLLNSLFGSGIGEEAPTKPNPQGHSLSSENLAKGKSKHYETNVSSPLKQSSLPTSDDKGNLWNKFKRKSQIGVPSPNTVAYVTSQETPSLKSNSSTATLTVQTADVNIPSPSSSPPPIPKTANRSLEVISTEDTPKISSTTASFKETYPDCINPDKTVPVPVNNQKYSVKNFLLDQKFYPLKKTGLNDSENKYILVTKDNVSFVPLNLKSVAKLSSFKESALTKLGINHKNVTFHMTDFDCDIGAAIPDDTLEFLKKSLFLNTSGKIYIKDQMKLQQKPKPAPLTSENNVPLKSVKSKSSMRSGTSSLIASTDDVSIVTSSSDITSFDEHASGSGRRYPQTPSYYYDRVSNTNPTEELNYWNIKEVLSHEENAPKMVFKTSPKLELNLPDKGSKLNIPTPITENESKSSFQVLRKDEGTEIDFNHRRESPYTKPELAPKREAPKPPANTSPQRTLSTSKQNKPIRLVRASTKISRSKRSKPLPPQLLSSPIEASSSSPDSLTSSYTPASTHVLIPQPYKGANDVMRRLKTDQDSTSTSPSLKMKQKVNRSNSTVSTSNSIFYSPSPLLKRGNSKRVVSSTSAADIFEENDITFADAPPMFDSDDSDDDSSSSDDIIWSKKKTAPETNNENKKDEKSDNSSTHSDEIFYDSQTQDKMERKMTFRPSPEVVYQNLEKFFPRANLDKPITEGIASPTSPKSLDSLLSPKNVASSRTEPSTPSRPVPPDSSYEFIQDGLNGKNKPLNQAKTPKRTKTIRTIAHEASLARKNSVKLKRQNTKMWGTRMVEVTENHMVSINKAKNSKGEYKEFAWMKGEMIGKGSFGAVYLCLNVTTGEMMAVKQVEVPKYSSQNEAILSTVEALRSEVSTLKDLDHLNIVQYLGFENKNNIYSLFLEYVAGGSVGSLIRMYGRFDEPLIKHLTTQVLKGLAYLHSKGILHRDMKADNLLLDQDGICKISDFGISRKSKDIYSNSDMTMRGTVFWMAPEMVDTKQGYSAKVDIWSLGCIVLEMFAGKRPWSNLEVVAAMFKIGKSKSAPPIPEDTLPLISQIGRNFLDACFEINPEKRPTANELLSHPFSEVNETFNFKSTRLAKFIKSNDKLNSSKLRITSQENKTE
Take B3: the “Ratio (Deletedscore / WTscore)” value (bait NBP2) was determined as 0.6492.

B4: YOL100W_1 (protein, UniProt Q12236 1-1081, looked up)
Serine/threonine-protein …: MYFDKDNSMSPRPLLPSDEQKLNINLLTKKEKFSHLDPHYDAKATPQRSTSNRNVGDLLLEKRTAKPMIQKALTNTDNFIEMYHNQQRKNLDDDTIKEVMINDENGKTVASTNDGRYDNDYDNNDINDQKTLDNIAGSPHMEKNRNKVKIEHDSSSQKPIAKESSKAQKNIIKKGIKDFKFGSVIGDGAYSTVMLATSIDTKKRYAAKVLNKEYLIRQKKVKYVSIEKTALQKLNNSPSVVRLFSTFQDESSLYFLLEYAPNGDFLSLMKKYGSLDETCARYYAAQIIDAIDYLHSNGIIHRDIKPENILLDGEMKIKLTDFGTAKLLNPTNNSVSKPEYDLSTRSKSFVGTAEYVSPELLNDSFTDYRCDIWAFGCILFQMIAGKPPFKATNEYLTFQKVMKVQYAFTPGFPLIIRDLVKKILVKNLDRRLTISQIKEHHFFKDLNFKDGSVWSKTPPEIKPYKINAKSMQAMPSGSDRKLVKKSVNTLGKSHLVTQRSASSPSVEETTHSTLYNNNTHASTESEISIKKRPTDERTAQILENARKGINNRKNQPGKRTPSGAASAALAASAALTKKTMQSYPTSSSKSSRSSSPATTSRPGTYKRTSSTESKPFAKSPPLSASVLSSKVPMPPYTPPMSPPMTPYDTYQMTPPYTTKQQDYSDTAIAAPKPCISKQNVKNSTDSPLMNKQDIQWSFYLKNINEHVLRTEKLDFVTTNYDILEKKMLKLNGSLLDPQLFGKPRHTFLSQVARSGGEVTGFRNDPTMTAYSKTEDTYYSKNIIDLQLLEDDYRIEGGDLSELLTNRSGEGYKCNQNSSPMKDDDKSESNNKGSSVFSGKIKKLFHPTSAAETLSSSDEKTKYYKRTIVMTSFGRFLVFAKRRQPNPVTNLKYELEYDINLRQQGTKIKELIIPLEMGTNHIVVIQTPYKSFLLSTDKKTTSKLFTVLKKILNSNTNKIEKELLQRNQKVIERRTSSSGRAIPKDLPTSKSPSPKPRTHSQSPSISKHNSFSESINSAKSNRSSRIFETFINAKEQNSKKHAAPVPLTSKLVNGLPKRQVTVGLGLNTGTNFKNSSAKSKRS
On to B4, for which the “Ratio (Deletedscore / WTscore)” value (bait MYO3) amounted to 0.53.

B5: YNL106C_1 (protein, UniProt P50942 1-1183, looked up)
Polyphosphatidylinositol …: MKILLSKQQTRKIAIVSETHGLVFRPINSKNSRRSTCAVELVPKAELNGNGFRRLSNHEIYGFIGLIEIEGLMFIATITGKSKVAQPIPNKTVNKIYAVDFFCLNNSKWDFMDIDSSGYPIVTNDGDFAISSPPSISTHSSRSSLRSSSSRSLNAQEQAPKHPCHELRKLLSNGSFYYSTDFDLTCTLQKRGFTEHSLSFDDFDREFMWNSFLMDEIITYRDRLDVTAKELLDQRGFLTTVIRGFAETIFSYINRLKVGLTIISRQSWKRAGTRFNARGIDDDGHVANFVETEMIMYSSQYCYAFTQIRGSLPIFWEQDTSLISPKIQITRSVEATQPTFDEHFIRLFKKYGPVHIINLLSTKSSEIQLSRRYKEQLKNSEKMKIGRDVFLTSFDFHRETSQDGFAAASRIIPKIRNTILDAGYFSYDVKEGRLISEQDGVFRTNCLDCLDRTNLIQQTISLAVFKLFLEDFRLVKPSSFIDDNEFVQKVNALWADNGDQISQIYTGTNALKSSYSRKGKMSFSGALSDATKSVSRMYINNFVDKGKQQNIDTLLGKLPHQQVVELYDPICEYVNERLLESEEKFTTHSNINLFVGTFNVNGNSRRADLSKWLFPIGDKFKPDVVVLGLQEVIELTAGSILNADYTKSSFWETMVTDCLNQYEEKYLLLRVEQMSSLLILFFARSDRAYNIKEVGGSTKKTGFGGITGNKGAVAIRFDYGATSFCFVNTHLSAGASNIDERRNDYNNIYRNITFPRSKTIPHHDSLFWLGDLNYRITLTNDEVRRELRAQKDGYIDRLLQYDQLTQEINEGVVFQGFKEPTLQFRPTYKYDYGTDNYDTSEKARTPSWTDRIIYKGENLHPLAYSDAPLKISDHKPVYAAYRANVKFVDEKEKLNLVEKLYAEYKNTHPEALTTGPDELSHARMEKQKESIPLDATVQSAGIKLIDLDDTSSCVSPLLSGPSPQPSVVGPGGLSNVSPDKSKLNVLPPPPPTSRHNKEPSSKLLSPTKEISIVSVSPRKGESNLPALERHSTPKPLPPVPALSLSKPVSLQKSSSELQHAKETIDNGKIVPRPCPPIRRKSSTAPDEISTSTKNSGVSTTEDPEPAKASTKPEKPPVVKKPHYLSVAANKLNTSQEHSIKVSPSNSKSEEELPCKKKSKPKVPAKNPELEKLSVHPLKPCDPN
For the molecule B5, under “bait LSB3”, the “Ratio (Deletedscore / WTscore)” value turned out to be 0.7587.
